According to the supplement of paper PMC9170038:

Test system: MS2 coat protein
Experiment: apparent KD of MS2 coat protein; designed switch direction (-1 OFF switch, 1 ON switch): 1; higher = weaker reporter binding
Summary of the method: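 The buffer was Tris-HCl pH 7.5 with KCl, MgCl2, BSA, DTT, tRNA and Tween-20. In it, SNAP-549-labelled MS2 coat protein was titrated in doubling steps from 0.7 or 1.5 nM to 3 µM over chip-bound RNA switches transcribed by stalled E. coli RNA polymerase on Illumina chips. Apparent KD is the per-design median over clusters of curve fits to normalised fluorescence.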

[1] = input ligand: microRNA oligo, concentration not stated
[2] = Eterna round: R95, input ligand: FMN 200 uM
[3] = Eterna round: R95, input ligand: microRNA oligo, concentration not stated
[4] = Eterna round: R95, input ligand: none

| Sequence | apparent KD of MS2 coat protein (input ligand: FMN 200 uM) [nM] | apparent KD of MS2 coat protein [1] [nM] | apparent KD of MS2 coat protein (input ligand: none) [nM] | apparent KD of MS2 coat protein [2] [nM] | apparent KD of MS2 coat protein [3] [nM] | apparent KD of MS2 coat protein [4] [nM] |
| --- | --- | --- | --- | --- | --- | --- |
| GGGAGAGACGGAGGAUAUGGAGGGAGAUAGAGACUAGAAGGUUGGACAUGAGAAUCGAACAUGAGGAUCACCCAUGUUGGGAGG [iteri-2] (Eterna round: R96, puzzle: Same State NG 1) | 61.5 | 33.7 | 56.7 | – | – | – |
| GGGAGAGGCGCAGGAUAUGGUGAGGAUCACCCACUAGAAGGGUGCACAUGAGAAUCGAACAUGAGGAUCACCCAUGUUCUGAGC (Eterna round: R96, puzzle: Same State NG 1) | 560 | 162 | 348 | – | – | – |
| GGGAGAGGUACAGGAUAUGGUGAGGAUCACCCACUAGAAGGGUGCACAUGUGAAUCGGACAUGAGGAUCACCCAUGUUUGGCGU (Eterna round: R96, puzzle: Same State NG 1) | 86.7 | 74.8 | 133 | – | – | – |
| GGGCCACAUGAGGAUCACCCAUGUGGAGCUAGUGCACGGUCACAGGAUAUCUCGUGGGCGUAUAGGGAGAAGGGUGAUUCAUUA [Eternabot solution 18] (Eterna round: R96, puzzle: Same State NG 3) | 47.2 | 51.3 | 52.3 | – | – | – |
| GGUAAGAAUUAAGGAUAUCGAGUACAUAUGUUUAACAUGAGGAUCACCCAUGUGGGUUGCGGUAUCGAGAAGGUAAAAUAAAAG [Mat - same State NG 2 - JL mod - D65] (Eterna round: R96, puzzle: Same State NG 2) | 53 | 29.2 | 36.2 | – | – | – |
| GGUAAGAAUUAAGGAUAUCGAGUACAUAUGUUUAACAUGAGGAUCACCCAUGUGGGUUGCGGUAUCGAGAAGGUAAAUUACAAG [Mat - same State NG 2 - JL mod - D62] (Eterna round: R96, puzzle: Same State NG 2) | 40.7 | 35.7 | 41.8 | – | – | – |
| GGUAGGUUACUACCAAACAACAUGAGGAUCACCCAUGUGUGGAAGGAUAUGGUACCUAUUUGGUACCAGAAGGUCCAAUUAAUU [Fiskers NG3ss - 4] (Eterna round: R96, puzzle: Same State NG 3) | 72.3 | 36.4 | 63.1 | – | – | – |
| GGUAGGUUACUACCAAACAUGAGGAUCACCCAUGUUAAUGGGAAGGAUAUGGUACCUAUUUGGUACCAGAAGGUCCAAUUAAUU [JL Fiskers NG3ss - 2 mod 4] (Eterna round: R96, puzzle: Same State NG 3) | 70.4 | 520 | 493 | – | – | – |
| GGUAGGUUACUACCAAACUACAUGAGGAUCACCCAUGUGUGGAAGGAUAUGGUACCUAUUUGGUACCAGAAGGUCCAAUUAAUU [Fiskers NG3ss - 5] (Eterna round: R96, puzzle: Same State NG 3) | 125 | 108 | 122 | – | – | – |
| GGUAGGUUACUACCAGACAUGAGGAUCACCCAUGUAAAUGGGAAGGAUAUGGUACCGUUUCGGUACCAGAAGGUCCUAAAUGAG [JL SSNG3 1.47] (Eterna round: R96, puzzle: Same State NG 3) | 301 | 644 | 1750 | – | – | – |
| GGUCAGACUCACAUGAGGAUCACCCAUGUACCGGAAACGGCACAGGAUAUCUGUCCGAAAAGGUCAGAGAAGGGUGUACUGACC [Fiskers NG3ss - 53] (Eterna round: R96, puzzle: Same State NG 3) | 277 | 22.9 | 82 | – | – | – |
| GGUCCAGCCUGAGCUGGACAAAAGCAUGUACAUGAGGAUCACCCAUGUCAUGUACAAGCUUUUUGCUCGUCAGAAAG [Mat - hsa-mir-208a - 98] (puzzle: Sensor for hsa-mir-208a) | – | – | – | 62.7 | 16.9 | 89.8 |
| GGUCCAGCCUGAGCUGGACAAAAGCAUGUACAUGAGGAUCACCCAUGUCAUGUACAAGCUUUUUGCUCGUCAUAAUU [Mat - hsa-mir-208a - 100] (puzzle: Sensor for hsa-mir-208a) | – | – | – | 495 | 16 | 489 |
| GGUCCAGCCUGAGCUGGACAAAAGCAUGUACAUGAGGAUCACCCAUGUCAUGUACAGGCUUUUUGCUCGUCUUAAAA [JL mod - D87 - 7] (puzzle: Sensor for hsa-mir-208a) | – | – | – | 622 | 16.1 | 825 |
| GGUCCAGCCUGAGCUGGACAAAAGCAUGUACAUGAGGAUCACCCAUGUCAUGUGCAAGCUUUUUGCUCGUCUUAAAA [JL mod - D87 - 4] (puzzle: Sensor for hsa-mir-208a) | – | – | – | 67.3 | 11 | 73.4 |
| GGUCCAGCCUGAGCUGGACAAAAGCAUGUACAUGAGGAUCACCCAUGUUCAUGUACAAGCUUUUUGCUCGUCUUAGA [salish99_208a_r3_068] (puzzle: Sensor for hsa-mir-208a) | – | – | – | 629 | 15.5 | 747 |
| GGUCCAGCCUGAGCUGGACAAAAGCAUGUACAUGAGGAUCACCCAUGUUCAUGUACAAGCUUUUUGCUCGUCUUAGU [salish99_208a_r3_069] (puzzle: Sensor for hsa-mir-208a) | – | – | – | 536 | 16.3 | 730 |
| GGUCCAGCCUGAGCUGGACGAUAGUAUGUACAUGAGGAUCACCCAUGUCAUGUAUAAGUAUUUUGUUUGUCUUGAAA [Sensorship 3 - Jieux - Sensor for hsa-mir-208a] (puzzle: Sensor for hsa-mir-208a) | – | – | – | 22.1 | 14.7 | 19.3 |
| GGUCCAGCCUGAGCUGGACUACAGCAUGUACAUGAGGAUCACCCAUGUCAUGUACAAGUAUGUUGUUUGUCUUAAAA [Sensorship 7 - Jieux - Sensor for hsa-mir-208a] (puzzle: Sensor for hsa-mir-208a) | – | – | – | 80.8 | 37.5 | 108 |
| GGUCCAGCCUGAGCUGGACUACAGCAUGUACAUGAGGAUCACCCAUGUCAUGUACAUGCUUUUUGUUUGUCUUAAAA [Sensorship 10 - Jieux - Sensor for hsa-mir-208a] (puzzle: Sensor for hsa-mir-208a) | – | – | – | 20.2 | 38.8 | 24.6 |
| GGUCCAUCAUGAGGAUAUGGCACCUUAUUGGUGCCAGAAGGCAUGUAAAUUAUAAUAAAUACAUGAGGAUCACCCAUGUGGACC [Eli NG1ss - 98] (Eterna round: R96, puzzle: Same State NG 1) | 1230 | 80.2 | 407 | – | – | – |
| GGUCCGGCCUGAGCUGGACCGAGGCAUGUACAUGAGGAUCACCCAUGUUCAUGUGCAGGCUUUUUGCUCGUCUUGUG [JL-shm-2.06 JL mod] (puzzle: Sensor for hsa-mir-208a) | – | – | – | 49.6 | 11 | 50.6 |
| GGUCGAAACCACAUGAGGAUCACCCAUGUUCCGGAAACGGCGCAGGAUAUCUGUCCGAAAAGGUCAGAGAAGGGUGAAACGACC [Fiskers NG3ss - 79] (Eterna round: R96, puzzle: Same State NG 3) | 546 | 699 | 944 | – | – | – |
| GGUCGGACAUGAGGAUCACCCAUGUGGUGACCGGAAACGGCAUAGGAUAUCUGUCCGAAAAGGUCAGAGAAGGGUGAACCGACC [Fiskers NG3ss - 69] (Eterna round: R96, puzzle: Same State NG 3) | 160 | 15.5 | 126 | – | – | – |
| GGUGCAAUAAACGCCUACAUGAGGAUCACCCAUGUAUGUAGGCAGGAUAUCGUAUGCAAAGCAUACGAGAAGGGCUAUAGUACC [Mat - Same State NG 3 - JL Mod - D45] (Eterna round: R96, puzzle: Same State NG 3) | 57.1 | 124 | 146 | – | – | – |
| GGUGCAAUAAACGCCUACAUGAGGAUCACCCAUGUAUGUAGGCAGGAUAUCGUAUGCAAAGCAUACGAGAAGGGCUGUAGUACC [Mat - Same State NG 3 - JL Mod - D42] (Eterna round: R96, puzzle: Same State NG 3) | 53.7 | 116 | 118 | – | – | – |
| GGUGCAAUUAACGCCUACAUGAGGAUCACCCAUGUAUGUAGGCAGGAUAUCGUUUGCUUUGCAAACGAGAAGGGCUGUAGUACC [JL SSNG3 1.14] (Eterna round: R96, puzzle: Same State NG 3) | 35.6 | 89.3 | 84.5 | – | – | – |
| GGUGGGUUGCUGCCGGCACAUGAGGAUCACCCAUGUUUUGGGAAGGAUAUGGUACCUUUUUGGUGCCAGAAGGUCCCGUUGGUG [salish99_SSNG3_r04_712 large U pivot] (Eterna round: R96, puzzle: Same State NG 3) | – | 350 | – | – | – | – |
| GGUUUAGUCAGGUACAGUUGCACCUGAAAACAUGAGGAUCACCCAUGUUUGGGACAAGCUUUGCUCCUCGUCUUGCC [Ralausen] (puzzle: Sensor for hsa-mir-208a) | – | – | – | 101 | 77.6 | 152 |
| GGUUUAGUCGAGUACCGUUCCACUCGAAAACAUGAGGAUCACCCAUGUUUGGGACAAGCUUUGCUCCUCGUCUUUCC [Inardiza] (puzzle: Sensor for hsa-mir-208a) | – | – | – | 29.6 | 64.8 | 36.6 |
